Data set [1] deals with the molecule itself. The data set is described as follows: cross-linking; recombinant pcGAS (5 ug), bound to ISD45 dsDNA, alone or with recombinant Rep proteins (5, 10, 15 ug) in cGAMP synthesis buffer (20 mM HEPES pH 7.5, 5 mM MgCl2, 2 mM ATP, 2 mM GTP), 25°C 15 min, then DSS 0.5 mM for 10 min; non-reducing loading buffer, immunoblot. In general terms: In western blotting, separated proteins are transferred to a membrane and probed.

The next data set deals with T1, PCV2a Rep (Porcine circovirus 2a, UniProt Q77Q74 1-314).
T1 sequence: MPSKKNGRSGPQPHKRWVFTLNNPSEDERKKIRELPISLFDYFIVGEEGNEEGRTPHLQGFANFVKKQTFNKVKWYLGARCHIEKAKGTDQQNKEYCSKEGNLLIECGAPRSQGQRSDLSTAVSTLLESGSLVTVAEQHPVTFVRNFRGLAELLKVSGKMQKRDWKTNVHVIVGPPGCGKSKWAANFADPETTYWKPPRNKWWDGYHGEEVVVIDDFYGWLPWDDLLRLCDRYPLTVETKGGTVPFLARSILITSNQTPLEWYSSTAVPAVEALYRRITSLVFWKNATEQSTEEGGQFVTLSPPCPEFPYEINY
The data set is described as follows: MST; Pull-down: IP lysis buffer 4 h at 4 C (lysates) or NP-40 buffer 6 h at 4 C (recombinant), biotin-HSV60 40 ug/mL; MST buffer not given; phase separation 50-300 mM NaCl. As to conditions: protein: recombinant; tags: C-terminal Myc; His6-SUMO removed per Methods; label: Cy5; blunt.

A further data set concerns the target T2, pcGAS full length (pig (porcine), UniProt I3LM39 1-495).
T2 sequence: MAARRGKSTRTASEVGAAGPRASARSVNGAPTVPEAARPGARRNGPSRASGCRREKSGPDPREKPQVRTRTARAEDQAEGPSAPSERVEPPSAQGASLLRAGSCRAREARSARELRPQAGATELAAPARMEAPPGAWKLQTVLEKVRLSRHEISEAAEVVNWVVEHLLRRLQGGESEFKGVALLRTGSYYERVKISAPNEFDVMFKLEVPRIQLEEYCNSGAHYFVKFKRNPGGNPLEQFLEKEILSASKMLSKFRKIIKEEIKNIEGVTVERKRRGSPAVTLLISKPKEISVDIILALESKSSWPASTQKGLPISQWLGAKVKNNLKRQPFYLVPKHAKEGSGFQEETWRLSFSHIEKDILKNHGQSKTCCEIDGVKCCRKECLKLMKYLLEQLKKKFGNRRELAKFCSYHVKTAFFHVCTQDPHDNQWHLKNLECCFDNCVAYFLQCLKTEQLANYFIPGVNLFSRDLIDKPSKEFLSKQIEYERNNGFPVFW
The data set is described as above. Particulars: protein: recombinant; label: Cy5; blunt.

In a further data set the target is SUMO-PCV3 Rep-Myc (Porcine circovirus 3, UniProt A0ACM8RHE8 1-296). As to the kind of experiment: pull-down; Pull-down: IP lysis buffer 4 h at 4 C (lysates) or NP-40 buffer 6 h at 4 C (recombinant), biotin-HSV60 40 ug/mL; MST buffer not given; phase separation 50-300 mM NaCl. Particulars: protein: recombinant; tags: His6-SUMO, C-terminal Myc; label: 5'-biotin; blunt.

Another data set addresses T3, SUMO-PCV4 Rep-Myc (Porcine circovirus 4, UniProt A0A7M4CFI7 1-296).
T3 sequence: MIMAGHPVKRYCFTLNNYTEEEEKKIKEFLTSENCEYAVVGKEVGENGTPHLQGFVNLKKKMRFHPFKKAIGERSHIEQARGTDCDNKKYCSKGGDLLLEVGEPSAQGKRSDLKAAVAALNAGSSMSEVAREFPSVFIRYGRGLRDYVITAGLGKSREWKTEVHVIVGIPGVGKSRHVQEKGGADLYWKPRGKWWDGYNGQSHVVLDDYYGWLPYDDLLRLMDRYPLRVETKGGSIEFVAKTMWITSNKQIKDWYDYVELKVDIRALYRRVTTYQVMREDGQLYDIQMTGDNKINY
The data set is described as above. Particulars: protein: recombinant; tags: His6-SUMO, C-terminal Myc; label: 5'-biotin; blunt.

As usually defined, the Kd is the free concentration of one partner at which half of the binding sites on the other are occupied at equilibrium, for simple one-to-one binding.

B1: porcine cGAS (pcGAS), recombinant full-length protein (natural protein)
chain: T2 sequence
notes: cyclic GMP-AMP synthase (cGAS), porcine, full length; identifier not given; also called porcine cyclic GMP-AMP synthase; pcGAS full length; source: recombinant protein, stored in our laboratory
As for B1, in data set [1], the binding result is “binds”.

B2: Cy5-HSV60 (dsDNA)
DNA 1: TAAGACACGATGCGATAAAATCTGTTTGTAAAATTTATTAAGGGTACAAATTGCCCTAGC
DNA 2: GCTAGGGCAATTTGTACCCTTAATAAATTTTACAAACAGATTTTATCGCATCGTGTCTTA
As for B2, the figures for the dissociation constant (Kd) in the data set with PCV2a Rep and with pcGAS full length were 11.1 µM and 0.68 µM, respectively.

B3: biotin-HSV60 (dsDNA)
DNA 1: B2 DNA 1
DNA 2: B2 DNA 2
B3: the binding result in the data set with SUMO-PCV3 Rep-Myc and with SUMO-PCV4 Rep-Myc was “binds” in each case.

The values are drawn from PMC12201654, “Circovirus Rep evades immune restriction by disrupting cGAS oligomerization and phase separation” (PLOS Pathogens, 2025).
